Assay: High throughput cellobiose assay: fold improvement in cellobiase activity of CelA variants over a control enzyme (Tables 2A-2D, 3, 5, 6, 7)
Assay type: biochemical
Conditions: 3.3 g/l cellobiose, 55° C. and pH 6.0

B1: 170 (protein)
chain: STAIAQEGAAPAAILHPEKWPRPATQRLIDPAVEKRVDALLKQLSVEEKVGQVIQGDIGTITPEDLRKYPLGSILAGGNSGPNGDDRAPPKEWLDLADAFYRVSLEKRPGHTPIPVLFGIDAVHGHGKIGSATIFPHNIALGATRSPELLRRIGEVTAEEMAATGIDWTFAPALSVVRDDRWGRTYEGFSEDPEIVAAYSPAIVEGVQGKYGSKDFMAPGRIVACAKHFLADGGTDQGRDQGDARISEDELIRIHNAGYPPAIDAGVLTVMASFSSWQGIKHHGHKQLLTDVLKGQMGFNGFIVGDWNAHDQVPGCTKFNCPTSLIAGLDMYMAADSWKQLYENTLAQVKDGTIPMARLDDAVRRILRVKVLAGLFEKPAPKDRPGLPGLETLGSPEHRAVGREAVRKSLVLLKNDKGTLPLSPKARVLVAGDGADNIGKQSGGWTISWQGTGNRNDEFPGATSILGGIRDAVADAGGSVEFDVAGQYKTKPDVAIVVFGEEPYAEFQGDVETLEYQPDQKQDLALLKKLKDQGIPVVAVFLSGRPMWVNPELNASDAFVAAWLPGTEGGGVVDVLFTDKAGKVQHDFAGKLSYSWPRTAAQTTVNRGDADYNPLFAYGYGLTYKDKSKVGTLPEESGVPAEARQNAGIYFRAGALRLPGRFL
In the case of B1, the “Fold improvement over Control Variant No. 5 from Table 2A” value is reported as “++ (++ = 1.1 to 6 fold improvement over control Variant No. 2)”.

B2: 173 (protein)
chain: STAIAQEGAAPAAMLHPEKWPRPATQRLIDPAVEKRVDALLKQLSVEEKVGQVIQGDIGTITPEDLRKYPLGSILAGGDSGPNGDDRAPPKEWLDLADAFYRVSLEKRPGHTPIPVLFGIDAVHGHGKIGSATIFPHNIALGATRDPELLRRIGEVTAVEMTATGIDWTFAPALSVVRDDRWGRTYEGFSEDPEIVAAYSPAIVEGVQGKYGSKDFMAPGRIVACAKHFLADGGTDQGRDQGDARISEDELIRIHNAGYPPAIDAGVLTVMASFSSWQGIKHHGHKQLLTDVLKGQMGFNGFIVGDWNAHDQVPGCTKFNCPTSLIAGLDMYMAADSWKQLYENTLAQVKDGTIPMARLDDAVRRILRVKVLAGLFEKPAPKDRPGLPGLETLGSPEHRAVGREAVRKSLVLLKNDKGTLPLSPKARVLVAGDGADNIGKQSGGWTISWQGTGNRNDEFPGATSILGGIRDAVADAGGSVEFDVAGRYKTKPDVAIVVFGEEPYAEFQGDVETLEYQPDQKQDLALLKKLKDQGIPVVAVFLSGRPMWVNPELNASDAFVAAWLPGTEGGGVADVLFTDKAGKVQHDFAGKLSYSWPRTAAQTTVNRGDADYNPLFAYGYGLTYKDKSKVGTLPEESGVPAEARQNAGIYFRAGALRLPGRFL
With B2 the “Fold improvement over Control Variant No. 5 from Table 2A” value was “+++ (+++ = 6 to 13 fold improvement over control Variant No. 2)”.

B3: 172 (protein)
chain: STAIAQEGAAPAAILHPEKWPRPATQRLIDPAVEKRVDALLKQLSVEEKVGQVIQGDIGTITPEDLRKYPLGSILAGGNSGPNGDDRAPPKEWLDLADAFYRVSLEKRPGHTPIPVLFGIDAVHGHGNIGSATIFPHNIALGATRDPELLRRIGEVTAQEMAATGIDWTFAPALSVVRDDRWGRTYEGFSEDPEIVAAYSAAIVEGVQGKYGSKDFMAPGRSVACAKHFLADGGTDQGRDQGDARISEDELIRIHNAGYPPAIDAGVLTVMASFSSWQGIKHHGHKQLLTDVLKGQMGFNGFIVGDWNAHDQVPGCTKFNCPTSLIAGLDMYMAADSWKQLYENTLAQVKDGTIPMARLDDAVRRILRVKVLAGLFEKPAPKDRPGLPGLETLGSPEHRAVGREAVRKSLVLLKNDKGTLPLSPKARVLVAGDGADNIGKQSGGWTISWQGTGNRNDEFPGATSILGGIRDAVADAGGSVEFDVAGQYKTKPDVAIVVFGEEPYAEFQGDVETLEYQPDQKQDLALLKKLKDQEIPVVAVFLSGRPMWVNPELNASDAFVAAWLPGTEGGGVADVLFTDKAGKVQHDFAGKLSYSWPRTAAQTTVNRGDADYNPLFAYGYGLTYKDKSKVGTLPEESGVPAEARQNAGIYFRAGALRLPGRFL
For B3, the “Fold improvement over Control Variant No. 5 from Table 2A” value was “+++ (+++ = 6 to 13 fold improvement over control Variant No. 2)”.

B4: 79 (protein)
chain: STAIAQEGAAPAAILHPEKWPRPATQRLIDPAVEKRVDALLKQLSVEEKVGQVIQGDIGTITPEDLRKYPLGSILAGGNSGPNGDDRAPPKEWLDLADAFYRVSLEKRPGHTPIPVLFGIDAVHGHGKIGSATIFPHNIALGATRDPELLRRIGEVTAVEMAATGIDWTFAPALSVVRDDRWGRTYEGFSEDPEIVAAYSAAIVEGVQGKFGSKDFMAPGRIVACAKHFLADGGTDQGRDQGDARISEDELIRIHNAGYPPAIDAGVLTVMASFSSWQGIKHHGHKQLLTDVLKGQMGFNGFIVGDWNAHDQVPGCTKFNCPTSLIAGLDMYMAADSWKQLYENTLAQVKDGTIPMARLDDAVRRILRVKVLAGLFEKPAPKDRPGLPGLETLGSPEHRAVGREAVRKSLVLLKNDKGTLPLSPKARVLVAGDGADNIGKQSGGWTISWQGTGNRNDEFPGATSILGGIRDAVADAGGSVEFDVAGQYKTKPDVAIVVFGEEPYAEFQGDVETLEYQPDQKQDLALLKKLKDQGIPVVAVFLSGRPMWVNPELNASDAFVAAWLPGTEGGGVADVLFTDKAGKVQHDFAGKLSYSWPRTAAQTTVNRGDADYNPLFAYGYGLTYKDKSKVGTLPEESGVPAEARQNAGIYFRAGALRLPGRFL
In the case of B4, the “Fold improvement over Control Variant No. 5 from Table 2A” value is reported as “++ (++ = 1.1 to 6 fold improvement over control Variant No. 2)”.

B5: 171 (protein)
chain: STAIAQEGAAPAAILHPEKWPRPATQRLIDPAVEKRVDALLKQLSVEEKVGQVIQGDIGTITPEDLRKYPLGSILAGGDSGPNGDDRAPPKEWLDLADAFYRVSLEKRPGHTPIPVLFGIDAVHGHGNIGSATIFPHNIALGATRDPELLRRIGEVTAEEMAATGIDWTFAPALSVVRDDRWGRTYEGFSEDPEIVASYSAAIVEGVQGKYGSKDFMAVGRIVASAKHFLADGGTDQGRDQGDARISEDELIRIHNAGYPPAIDAGVLTVMASFSSWQGIKHHGHKQLLTDVLKGQMGFNGFIVGDWNAHDQVPGCTKFNCPTSLIAGLDMYMAADSWKQLYENTLAQVKDGTIPMARLDDAVRRILRVKVLAGLFEKPAPKDRPGLPGLETLGSPEHRAVGREAVRKSLVLLKNDKGTLPLSPKARVLVAGDGADNIGKQSGGWTISWQGTGNRNDEFPGATSILGGIRDAVADAGGSVEFDVAGQYKTKPDVAIVVFGEEPYAEFQGDVETLEYQPDQKQDLALLKKLKDQGIPVVAVFLSGRPMWVNPELNASDAFVAAWLPGTEGGGVADVLFTDKAGKVQHDFAGKLSYSWPRTAAQTTVNRGDADYNPLFAYGYGLTYKDKSKVGTLPEESGVPAEARQNAGIYFRAGALRLPGRFL
In the case of B5, the “Fold improvement over Control Variant No. 5 from Table 2A” value is reported as “+++ (+++ = 6 to 13 fold improvement over control Variant No. 2)”.

B6: 175 (protein)
chain: STAIAQEGAAPAAILHPEKWPRPATQRLIDPAVEKRVDALLKQLSVEEKVGQVIQGDIGTITPEDLRKYPLGSILAGGDSGPNGDDRAPPKEWLDLADAFYRVSLEKRPGHTPIPVLFGIDAVHGHGNIGSATIFPHNIALGATRSPELLRRIGEVTAVEMAATGIDWTFAPALSVVRDDRWGRTYEGFSEDPEIVASYSAAIVEGVQGKYGSKDFMAPGRIVACAKHFLADGGTDQGRDQGDARISEDELIRIHNAGYPPAIDAGVLTVMASFSSWQGIKHHGHKQLLTDVLKGQMGFNGFIVGDWNAHDQVPGCTKFNCPTSLIAGLDMYMAADSWKQLYENTLAQVKDGTIPMARLDDAVRRILRVKVLAGLFEKPAPKDRPGLPGLETLGSPEHRAVGREAVRKSLVLLKNDKGTLPLSPKARVLVAGDGADNIGKQSGGWTISWQGTGNRNDEFPGATSILGGIRDAVADAGGSVEFDVAGQYKTKPDVAIVVFGEEPYAEFQGDVETLEYQPDQKQDLALLKKLKDQGIPVVAVFLSGRPMWVNPELNASDAFVAAWLPGTEGGGVADVLFTDKAGKVQHDFAGKLSYSWPRTAAQTTVNRGDADYNPLFAYGYGLTYKDKSKVGTLPEESGVPAEARQNAGIYFRAGALRLPGRFL
In the case of B6, the “Fold improvement over Control Variant No. 5 from Table 2A” value is reported as “+++ (+++ = 6 to 13 fold improvement over control Variant No. 2)”.

B7: 78 (protein)
chain: STAIAQEGAAPAAILHPEKWPRPATQRLIDPAVEKRVDALLKQLSVEEKVGQVIQGDIGTITPEDLRKYPLGSILAGGNSGPNGDDRAPPKEWLDLADAFYRVSLEKRPGHTPIPVLFGIDAVHGHGNIGSATIFPHNIALGATRDPELLRRIGEVTAVEMAATGIDWTFAPALSVVRDDRWGRTYEGFSEDPEIVAAYSAAIVEGVQGKFGSKDFMAPGRIVACAKHFLADGGTDQGRDQGDARISEDELIRIHNAGYPPAIDAGVLTVMASFSSWQGIKHHGHKQLLTDVLKGQMGFNGFIVGDWNAHDQVPGCTKFNCPTSLIAGLDMYMAADSWKQLYENTLAQVKDGTIPMARLDDAVRRILRVKVLAGLFEKPAPKDRPGLPGLETLGSPEHRAVGREAVRKSLVLLKNDKGTLPLSPKARVLVAGDGADNIGKQSGGWTISWQGTGNRNDEFPGATSILGGIRDAVADAGGSVEFDVAGQYKTKPDVAIVVFGEEPYAEFQGDVETLEYQPDQKQDLALLKKLKDQGIPVVAVFLSGRPMWVNPELNASDAFVAAWLPGTEGGGVADVLFTDKAGKVQHDFAGKLSYSWPRTAAQTTVNRGDADYNPLFAYGYGLTYKDKSKVGTLPEESGVPAEARQNAGIYFRAGALRLPGRFL
For B7, the “Fold improvement over Control Variant No. 5 from Table 2A” value was “++ (++ = 1.1 to 6 fold improvement over control Variant No. 2)”.

B8: 174 (protein)
chain: STAIAQEGAAPAAILHPEKWPRPATQRLIDPAVDKRVDALLKQLSVEEKVGQVIQGDIGTITPEDLRKYPLGSILAGGDSGPNGDDRAPPKEWLDLADAFYRVSLEKRPGHTPIPVLFGIDAVHGHGKIGSATIFPHNIALGMTRDPELLRRIGEVTAEEMAATGIDWTFAPALSVVRDDRWGRTYEGFSEDPEIVAAYSPAIVEGVQGKYGSKDFMAPGRIVASAKHFLADGGTDQGRDQGDARISEDELIRIHNAGYPPAIDAGVLTVMASFSSWQGIKHHGHKQLLTDVLKGQMGFNGFIVGDWNAHDQVPGCTKFNCPTSLIAGLDMYMAADSWKQLYENTLAQVKDGTIPMARLDDAVRRILRVKVLAGLFEKPAPKDRPGLPGLETLGSPEHRAVGREAVRKSLVLLKNDKGTLPLSPKARVLVAGDGADNIGKQSGGWTISWQGTGNRNDEFPGATSILGGIRDAVADAGGSVEFDVAGQYKTKPDVAIVVFGEEPYAEFQGDVETLEYQPDQKQDLALLKKLKDQGIPVVAVFLSGRPMWVNPELNASDAFVAAWLPGTEGGGVADVLFTDKAGKVQHDFAGKLSYSWPRTAAQTTVNRGDADYNPLFAYGYGLTYKDKSKVGTLPEESGVPAEARQNAGIYFRAGALRLPGRFL
In the case of B8, the “Fold improvement over Control Variant No. 5 from Table 2A” value is reported as “++ (++ = 1.1 to 6 fold improvement over control Variant No. 2)”.

— patent US8357523B2, “Beta-glucosidase variant enzymes and related polynucleotides” (Codexis, Inc., priority 2009, dated 2013)
